We go through one substance from patent US8329168.

The series concerns Met-SC1-325-His-6 (fragment comprising residues 1-325 of staphylocoagulase with an additional Met at the NH2 terminus and a His tag fused to the COOH terminus).

For “IIQ320 (recombinant human prothrombin containing Gln in place of Arg-320)”, the “conformational activation (initial rates of S2238 hydrolysis)” value is “Conformational activation of IIQ320 and its covalent inactivation with FPR-CH2Cl was accomplished by the addition of 43 µM Met-SC1-325-His-6”.
